Test [1] deals with nanobody‐based trispecific T cell engager (Nb‐TriTE) (human, UniProt P01857 = IgG part). Description: SPR. (In general: In SPR one partner is held on a chip, and binding of the other changes the refractive index at the surface.)
Another test addresses Muromonab. Description: SPR.

What is called Kd is the constant that tells how readily two partners part at equilibrium. Read a high Kd as lower affinity.

B1: rhCD3 (protein)
chain: DGNEEMGGITQTPYKVSISGTTVILTCPQYPGSEILWQHNDKNIGGDEDDKNIGSDEDHLSLKEFSELEQSGYYVCYPRGSKPEDANFYLYLRARVCENCMEMD
On to B1, for which the Kd stood at 0.337 nM in test [1] and 7.68 nM with Muromonab.

Source of the values: publication PMC11538689 (2024).
